The source of these data is a protein production outcome set (Wang et al. 2014).

This data set in a line: label from the status in PepcDB records.
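Further: failed if final PepcDB status was selected cloned or expressed and not failed if soluble or beyond.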

As for “MSDQVPKPHRHHIWRITRRTLSKSWDDSIFSESAQAAFWSALSLPPLLLGMLGSLAYVAPLFGPDTLPAIEKSALSTAHSFFSPSVVNEIIEPTIGDITNNARGEVASLGFLISLWAGSSAISAFVDAVVEAHDQTPLRHPVRQRFFALFLYVVMLVFLVATAPVMVVGPRKVSEHIPESLANLLRYGYYPALILGLTVGVILLYRVALPVPLPTHRLVLGAVLAIAVFLIATLGLRVYLAWITRTGYTYGALATPIAFLLFAFFGGFAIMLGAELNAAVQEEWPAPATHAHRLGNWLKARIGVGTTTYSSTAQHSAVAAEPPS”, the protein production entry was “failed”. With “MSDSIVGIPREDHQTFLYNPFTSQRYELPPLTIEDPHLKSVLRYGVLTGDPREDNTYACLVADSLHANLMAIGNTHPPSLHLYYVAKRNGEWDQNWSVTRIPTHNLPVVGSTIDSISPSADKISIIGWGHSFDFTFQSQDWNVTNINYTMEWNPFHGQSFDQIKHRLQIDPQTLDIIGTKTDRERVKNRIWFVINQIISHIDGVWVEVRA” the entry was “failed”; with “MSDSKEITKVIVTMVVISAVAAALLALTYTPTQAQLKLLQAEQQKEAMKEILPQAADFEPVTGSEVDDDGNPVVLYYKGVDSSGNVVGYVVERNQVGAQGMIQLLAGISSDFSTITGFQVMKHSETPGLGALITTPEFQGQFVDLPVADTSLTKNGGQVDAISGATISSQAVVDALHSAVDYVSAQEG”, “failed”. For “MSDVIEGRLKELGFTLPVAAAPAANYVPFTISGNLLYVSGQLPMESGKIAVTGLVGRDVDVASAQRAAELCAVNILAQVKAALNGDLSKIRRVIKLNGFVASVPEFVEQHLVINGASNLIATVLGEPGRHARAAVGMASLPFNASVEIDAIVEIDV” the value was “not failed”; for “MSDVISESALKSAKTEKNQKIYWDELKEGEQFSYGHYQVSEHENIDFAKRYDPMEFHVDPEKAKLSPIGALCASGIHTLGIMQRLTFDNIYTNWHIVAGRELRKCQFRLPVFVDDCLTVNMTIAKLSVDTRSDRGNAELTFDVKNAKGKTVLEVEGEIVLQRFPSI”, “failed”; for “MSDVTQQKKRKRSKGEVNPSKPTVDEEITDPSSNEDEQLEVSDEEDALESEEEFEGENPADKRRRLAKQYLENLKSEANDILTDNRNAEEKDLNNLKERTIDEYNNFDAGDLDKDIIASRLKEDVAEQQGRVFRYFGDKLLISEAKQSFTRVGENNLTCISCFQPVLNKYTFEESSNGDKNKGRLFAYTVSKDLQLTKYDITDFSKRPKKLKYAKGGAKYIPTSKHEYENTTEGHYDEILTVAASPDGKYVVTGGRDRKLIVWSTESLSPVKVIPTKDRRGEVLSLAFRKNSDQLYASCADFKIRTYSINQFSQLEILYGHHDIVEDISALAMERCVTVGARDRTAMLWKIPDETRLTFRGGDEPQKLLRRWMKENAKEGEDGEVKYPDESEAPLFFCEGSIDVVSMVDDFHFITGSDNGNICLWSLAKKKPIFTERIAHGILPEPSFNDISGETDEELRKRQLQGKKLLQPFWITSLYAIPYSNVFISGSWSGSLKVWKISDNLRSFELLGELSGAKGVVTKIQVVESGKHGKEKFRILASIAKEHRLGRWIANVSGARNGIYSAVIDQTGF”, “failed”. Turning to “MSDWADLMNDLNKLQHSDAVTTAWQFTEQVPHGRDLGMQVVSVDQGQVCMRLTPQSWMFAHKDTKEICTSVLYSLADSAGGLAVFAGALELMPIATLDLRMDYLRPAIGDRALSAVATCRHLSDDVAFIHCDILSEGNRELLATANATFMRNTQGQQLHAGGPGKESA”, the protein production result is listed as “failed”. With “MSDYYLFAGRLFIAVMYVLSGANKLLFFSHGLDEVKSRNLPFPQLALSATIAVQLICGLAIMAGFQTTTASLLLALFTLATAVLFYDFWNQEGAQRTLMFTGFLEHISIIGGFALLMGAGPGKFVLLP” the entry was “failed”; with “MSEADGLRQRRPLRPQVVTDDGQVPEVKEGSSFSGRVFRMTFLMLAVSLAIPLLGAMMLLESPIDPQSFSFKEPPFMFGVLHPNTKLRQAERLFENQLSGPESIVNIGDVLFTGTADGRVVKLENGEIETIARFGSGPCKTRDDEPTCGRPLGIRAGPNGTLFVVDAYKGLFEVNPQKRSVKLLLSSETPIEGKKMSFVNDLTVTRDGRKIYFTDSSSKWQRRDYLLLVMEATDDGRLLEYDTVTKEVKVLLDQLQFPNGVQLSPEEDFVLVAETTMARIRRVYVSGLMKGGADMFVENMPGFPDNIRPSSSGGYWVAAATIRANPGFSMLDFLSDKPFIKRMIFKMFSQETVMKFVPRYSLVLEVSDSGAFRRSLHDPDGQVVTYVSEAHEHDGYLYLGSFRSPFICRLSLQSI”, “failed”; with “MSEDLMDLSPEEGIERFLRHREPSVRESTMRNAKTRLRFFNEWCEERDIENLNNLTGRDLADFVAWRRGDIAALTLQKQLSTIREALRYWADIEGVDDGLAEKVHAPELEHHHHHH”, “failed”. For the sequence “MSEEEQGSGTTTGCGLPSIEQMLAANPGKTPISLLQEYGTRIGKTPVYDLLKAEGQAHQPNFTFRVTVGDTSCTGQGPS”, the protein production result is “failed”. With “MSEELMISPAAPAAPAAGSALTSAQFRKLAEVPPEIEWFANIDSLQTRRAYQNDLRGFMAFAGIVSPEDFRLITRSHVLAWRKRLEEEQLGGATIRRKLAALSSLFEYLCEANAVTHNPVKGVKRPPVESWQGKTPALGDVQARALLEAPNAKTLKGKRDRAILSALLYHGIRREELARLKVKDYNQSRRGVPHLRIKGKGGKMRFIPTHPGTLTLIEEYLEAAGHGHDPDAPLFRPVKNNVHGHTLTALTPDSIYFEVVLKYLRKLGIFGENMGPHVMRATAATNALDNGADIAKVQEWLGHANIATTRIYDHRKTRPEDSPTFKVSY” the entry was “failed”. With “MSEEQHILEVLQSDDAEQVREAAYSAGELRLEAAVPHLVRHLQSQNIGVQEAVDNALRKIGGAAAVAGVIPLLRSDDAPIRNISMDILRDIGRDEFDALKQLLHDEDPDIRIFASDILGTSGSILAVPALCEALLRDPEVNVRYQAAVSLGTLAFPEAADCLNKAMQDEEWVQFSVIEALIKIRAESSVNALVKALDTTSDLVASMIVDALGEMGNLKAVPLLLKRIEKSPTPLRNKIVRAIVSILGKKSLSLLGEREQQRLGAYLLAALDDEDEEVQDAAMVGLASLGQAEATVAVLRLAARLDPDRDHERLEAAIRCIGGIGFNEAVEEALSDENESTILMVVEAAADMNPAEIVPALKRIFWDKGRDAQRAIATQLARIASLEDVDFFLDLLERAEDAHVIKAALHFLGHRARPAGVGERMLALLDHPYDDVKEAALEACIALQDVSLCASFRERFHSGDPLQRMMATYAMGRLDVDGNLDVLREALVDDVPDVRKVALEALAGTCPITPEHLELVVPLMHDPVREVRLALVDLFGACPEESVIGHLLEALDDEDDWVRVRAIEALGRLGRKECVTPLIERVDGAGNLVLLKIIEALGSIGGNMAFRALLALMEHEDPEIQQAAEDAVARLGEQDSEGE” the entry was “failed”; with “MSEFHSEISTLSPAPLWQFFDKICSIPHPSKHEEALAQYIINWATEQGFDVRRDPTGNVFIKKPATPGMENKKGVVLQAHIDMVPQKNEDTDHDFTKDPIQPYIDGEWVTAKGTTLGADNGIGMASCLAVLASKDIKHGPIEVLLTIDEEAGMTGAFGLEAGWLEGDILLNTDSEQEGEVYMGCAGGIDGAMTFDIKRDAIPTGFVTRQLTLKGLKGGHSGCDIHTGRGNANKLLGRFLAGHAQELDLRLVEFRGGSLRNAIPREAFVTVAVPAENQEKLAELFNYYTELLKAELGKVETGIVTFNEEIVTESQAFTAADQQRFIAALNACPNGVMRMSDEIEGVVETSLNVGVITTEENKVTVLCLIRSLIDSGRSQVESMLRSVAELAGAQVEFSGAYPGWKPDADSEIMAIFRDMYEGIYGHKPNIMVIHAGLECGLFKEPYPNMDMVSFGPTIKFPHSPDEKVKIDTVQLFWDQMVALLEAIPEKALEHHHHHH”, “not failed”. For “MSEFRPVPTTDREACQRILQYAFAPETGPVPPDPDGDWPPSLFDQRGLYDGGTLRAVCKLYFFDTTVRGAATTVGGLGAVATPPEHRGQGLAADLCRHALSAYRKADVGFVTLWPFSTPFYHRLGWGTANTYRRFDLPPSALPDPSTAGQLVRLDADDWERLRRVETAAAAGTALSLRRSEAWWRERTLADWDDDGVPYCYGYERDGELQGYVVYTVADDANNTLSVSNFAAVDEEARRALFAFLGHHGAQIERVTLQLPPDTDLFHRVDDPGAVDCTVEAGPMVRLTDVDYLERLDWPGGDLDCTLSVNDPLLDHNDGLFRLSVNGGTATVDPLPASDSKADVAVDIATLSQLAVGTHGVDAAERLAGLEMFDDSVRGPLADVFQPESVYLGEFF” the value was “failed”; for “MSEKELELLARIEELERHTWRNSAILRAVAMVAGTAMIGIIVASGVVGGGHGSHWTGPAWNTMWLYGLFAANAVSMFWTTHKD”, “failed”. With “MSEKKAVIGVVTISDRASKGIYEDISGKAIIDYLKDVIITPFEVEYRVIPDERDLIEKTLIELADEKGCSLILTTGGTGPAPRDVTPEATEAVCEKMLPGFGELMRQVSLKQVPTAILSRQTAGIRGSCLIVNLPGKPQSIKVCLDAVMPAIPYCIDLIGGAYIDTDPNKVKAFRPKK”, the protein production result was “not failed”.

In the case of “MSELFSNDNIFLNVNVNSQNEAIEKAGKALVDSGAVTDAYIQAMKDREQVVSTFMGNGLAIPHGTDEAKTNVIHSGLTLLQIPEGVDWDGEVVKVVVGIAGKDGEHLDLLSKIAITFSEEENVDRIVQAKSAEEIKQVFEEADA”, the protein production entry is given as “failed”. As to “MSERAGEKKLDLLITGVGGQGAILASDIIGKAAVISGIPIRAAETHGMAQRGGSVVNHIRLGSDLGSMIPKKGADIMLALEPMEAVRYLDFLKDGGVIIVNTQSIIPVTVTSGLSKYPEVQEILDALSEKYVVKAFNADELAHEAGSRLAMNVAMVGAVSGYLPISKEVLLESVKVLVPKKTIEINIRAFEMGREEVEES”, the protein production result was “not failed”. With “MSERIVPSGDVELWSDDFGDPADPALLLVMGGNLSALGWPDEFARRLADGGLHVIRYDHRDTGRSTTRDFAAHPYGFGELAADAVAVLDGWGVDRAHVVGLSMGATITQVIALDHHDRLSSLTMLLGGGLDIDFDANIERVMRGEPTLDGLPGPQQPFLDALALMNQPAEGRAAEVAKRVSKWRILSGTGVPFDDAEYARWEERAIDHAGGVLAEPYAHYSLTLPPPSRAAELREVTVPTLVIQAEHDPIAPAPHGKHLAGLIPTARLAEIPGMGHALPSSVHGPLAEVILAHTRSAA” the entry was “not failed”.

As for “MSERVKVAILGSGNIGTDLMYKLLKNPGHMELVAVVGIDPKSEGLARARALGLEASHEGIAYILERPEIKIVFDATSAKAHVRHAKLLREAGKIAIDLTPAARGPYVVPPVNLKEHLDKDNVNLITCGGQATIPLVYAVHRVAPVLYAEMVSTVASRSAGPGTRQNIDEFTFTTARGLEAIGGAKKGKAIIILNPAEPPILMTNTVRCIPEDEGFDREAVVASVRAMEREVQAYVPGYRLKADPVFERLPTPWGERTVVSMLLEVEGAGDYLPKYAGNLDIMTASARRVGEVFAQHLLGKPVEEVVA”, the protein production entry is listed as “not failed”. For “MSETAIQTKTQARQRKVFAHHHVQHYRSQLERRISHSPQFREGKVINAMPHITATPSWWQTAWSYFGGRAQLKPNAQLPVAPLNLQALQTRSKALRVTWLGHSSLFIEVDGLRVLTDPVFDYASPWIAKAWFARNLPNSGVREQLPLPDVIVISHDHYDHLEQASVVYYAAHSVTFYVPLGVGQHLIRWGVSPERIIEFDWWEQIKREGVEFICTPANHNSGRYYLDHNATLWCSWVIKGHQETLYFSGDSAYDTHFAKIAERCGPIDLACLEVAADVKQHQGYPVENWGHMQAKHTVQAFRDLQAKKLLPIHWATYELFTHQWDEPIADLVKHCQEQSITLLTPMAGESLTMANHSASHAWWQGLETEPMSGARYWQMGLACSLLLLLMVV” the value was “failed”.
